Source: the supplement of paper PMC12764529
± gives the half width of the 95% confidence interval.

Assays:
[1] = folding stability dG unfold from chymotrypsin proteolysis; higher = more stable
Summary of the method: (§1)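 Bayesian fitting of sequencing counts gave K50 for each design. Unfolding free energy followed by setting this against a sequence-predicted unfolded-state K50 and a shared folded-state K50, either per protease or with trypsin and chymotrypsin combined. The designs, under 80 residues and lacking cysteine, were digested in a PA-tagged cDNA display format at 11 threefold-diluted protease concentrations and without protease, and only those with AlphaFold2 dimer inter-PAE above 15 were kept.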

[2] = folding stability dG unfold from trypsin proteolysis; higher = more stable
Summary of the method: as §1

[3] = folding stability dG unfold (combined trypsin and chymotrypsin); higher = more stable
Summary of the method: as §1

Sequence | folding stability dG unfold [1] [kcal/mol] | folding stability dG unfold [2] [kcal/mol] | folding stability dG unfold [3] [kcal/mol]
SKTVVIKIDNRVPVPKSDKYVPIKEEFFLKVINEIKKKGYKVIITGANPDNPLAKEVAKKAKELGFEVVGSA [r9_468_TrMRF] | 0.805 ± 0.082 | 0.992 ± 0.014 | 0.922 ± 0.065
SKTVVVEINGYLIVVEEKKLENGETYYTVKIVNKKTKKVIEVKAKSKEEAEKAVLEALRKLFPDEELKKLSA [r9_749_TrROS_Hall] | 2.45 ± 0.075 | 3.05 ± 0.15 | 2.51 ± 0.35
SKVKIVKVEYDKETNVVTVTIYDEKTKKKIEIRYTPGKVEIVVEIDGKKLVLKFKTKEEALEAAKKLLKKSA [r9_527_TrROS_Hall] | 3.94 ± 0.079 | 2.72 ± 0.089 | 3.61 ± 0.2
SKVKPGEKVEYVEITITVDVKSVEELEKKLRELLGVKEVKVTVTEENGKLTLTIVVKSKEEADKLKELLSSA [r9_764_TrROS_Hall] | 1.73 ± 0.066 | 1.22 ± 0.031 | 1.47 ± 0.16
SKVKVEVVEVKYNKETKKFTVKLKVYNEDGELIEEIELEFPESEEEVLKKAEELAKELAEKYGLKIEIKPSA [r9_31_TrROS_Hall] | 3.89 ± 0.085 | 2.41 ± 0.12 | 3.56 ± 0.12
SKVRELLREIARPHGMPITDVKVEPPPDGWHKVTFQIQFPMKDPNGQPMRRMTFPATITVRNGKITEITISA [r9_519_TrROS] | 1.56 ± 0.12 | 1.54 ± 0.11 | 1.72 ± 0.34
SKYRILIHTPNPGMPPEEIIDELEEPGFKDVEVVDSPSELKELPPNYDIVIMFHNGQFQISIFPPEELDKSA [r9_750_TrROS] | 1.4 ± 0.31 | 0.316 ± 0.14 | 0.937 ± 0.2
SLDKARDILREHGMEPTSIDVVEDGWVKVTWEYPGNKVEIFIPEDGNIMIEFRNPNNGQRVERTIPVDDVSA [r9_2_TrROS] | 0.753 ± 0.14 | -0.489 ± 0.2 | 0.472 ± 0.15
SLKPGETKTLTLLIRTKDPEKTAEELAEEARKEIEELLPPGVKIEVKVTSVEPLPETGEVDVTVEVTVTASA [r9_706_TrMRF] | 3.01 ± 0.06 | 3.02 ± 0.19 | 2.97 ± 0.13
SLSEEEAKDNPEEANEKMQPPPVPPIPLPVPIRNPDNKQEFPAPFEIRTLPNHLEFRFPGNGKPFPVPIDSA [r9_548_TrROS] | 2.87 ± 0.11 | 2.53 ± 0.24 | 2.63 ± 0.28
SLSEEELKKKLEELKKKLKPPKPKVKKVKVKIKNKETNEEIEEEVEIVETPDTVYIYNKKTGKLFKFKIKSA [r9_548_TrROS_Hall] | 1.95 ± 0.24 | 0.935 ± 0.11 | 1.73 ± 0.29
SLSPSTPISSEEEAKEAAEKLAEEVREELGEDLPIVVDIERKELEDGTIVVKFTFYVPETGEKLLEVEVGSA [r9_794_JUSTAS] | 1.56 ± 0.049 | 1.2 ± 0.097 | 1.27 ± 0.16
SMAKVTGYPDIFLVTIYKDGEEKTIPVNFEELVELLKKGVKKVEFTTDNPEFAEKFYKLVKSLGVPVNLKSA [r9_810_TrMRF] | 2.7 ± 0.04 | 1.44 ± 0.016 | 2.33 ± 0.044
SMDLRLEVVSVEIEPEGRTLRIRVRVRLTALDPDDPDLPVPVLEVEVEIPIPLPEPLPLPVPNDPRALAASA [r9_357_TrMRF] | 2.75 ± 0.037 | 1.63 ± 0.11 | 2.25 ± 0.21
SMDPGDPILITIKIPPVPVYRYKRDPDGNPKGYEPVPMPSQELVIIIPANDLEKLLDLLQPFGLDVEIIPSA [r9_167_TrROS] | 2.44 ± 0.083 | 1.58 ± 0.071 | 2.08 ± 0.13
SMEEVKEALRKAGIDVPVTKIETEKLPDGSYKVTLTVGDKKVLTVYVPPEPPEPPVFYRTPPNGSREPVLSA [r9_442_JUSTAS] | 0.528 ± 0.27 | 0.291 ± 0.12 | 0.504 ± 0.18
SMEITLLSTDPTPGGMTTALWETPNRKVTIFKPPSENYYIVTVEIPGTGKTKTLRFPKNVSPEEIVKKLGSA [r9_522_JUSTAS] | 1.55 ± 0.091 | 1.88 ± 0.034 | 1.78 ± 0.074
SMETLEIEITVKVEKDENGKIRKVSVEELKEELEKAGFKITEIEITEVTENTVKIKIKIEKPEEEEEEEESA [r9_225_TrROS_Hall] | 3.26 ± 0.24 | 2.97 ± 0.36 | 3.25 ± 0.55

Sequence | folding stability dG unfold [1] [kcal/mol] | folding stability dG unfold [2] [kcal/mol] | folding stability dG unfold [3] [kcal/mol]
SMEVKIELTDEEIEAALEAGYEVEIEVRVVEVEYDEETDEVTVKVEVTITIRPVPPPPEVVVDEETGEILSA [r9_396_TrROS_Hall] | 0.342 ± 0.057 | 2.1 ± 0.23 | 1.27 ± 0.34
SMFTLVLPDGSVIPVIKGDSTTTVYDPRTGRTLPIPSSTVEENSIEEIVERILAELEKLGVPAQPVEILESA [r9_1211_JUSTAS] | 1.72 ± 0.032 | 1.99 ± 0.035 | 1.84 ± 0.034
SMGVKIEIDKEIIEKAIEEGKTFEADAKIKIEAYNPKTGKKIAEAEKIVKIRLEIEPPKAEPDPETGKPESA [r9_396_TrMRF] | 0.36 ± 0.066 | 0.661 ± 0.071 | 0.633 ± 0.13
SMIDIEISTDPNNPNVITVTAKYPDPEKAKEYLEKKLKEEYDVISISYEYEPENPIITFTFTYASPEKPQSA [r9_1120_JUSTAS] | 3.11 ± 0.052 | 2.37 ± 0.078 | 2.79 ± 0.15
SMIIKPGMSLEEVLNKIKELLKKGEKYKITVINKETGKVYEFEIDVKTKKIKVKEVTLENGEVIIKIEKVSA [r9_1059_TrROS_Hall] | 3.54 ± 0.07 | 1.93 ± 0.046 | 3.05 ± 0.12
SMIIPPELGFEEAVELIKELLEPEKTYLVVTGDPETGTLSVARLDPETGEVEVEPLPTTEGESFVAVFEISA [r9_1059_TrMRF] | 1.3 ± 0.059 | 1.09 ± 0.044 | 1.27 ± 0.07
SMIKIKLKNGMEITIEKTPEKVKIKLKATGKEIELPLEELENMTEEELLEKLRKLAEELGMEVEEVEIEPSA [r9_1211_TrROS_Hall] | 3.43 ± 0.083 | 3.18 ± 0.14 | 3.38 ± 0.11
SMIKIKVVEKKDGKYKIKIENKKTGKTFEFEFDTKEEAEEAEKNPGKTIYLSEEALKKLKKENITKVEKVSA [r9_390_TrROS_Hall] | 1.24 ± 0.087 | 0.442 ± 0.065 | 1.11 ± 0.15
SMIKPGDTVTIVLKVKPEDLEKIREAVEELLRELFPDVEVESVEVNPEEENYVVITVRVDGKEITLVIERSA [r9_1079_TrROS_Hall] | 2.262 ± 0.021 | 2.78 ± 0.048 | 2.5 ± 0.041
SMITIEINVGNKKYTVEIVPEKGIIKITDPNGTPIGEGEIKPDSIDITLTKPNTDETYKFTFPIPPESLPSA [r9_963_JUSTAS] | 3.04 ± 0.12 | 2.29 ± 0.1 | 2.69 ± 0.18
SMIVKSEPVKDPNSDLTTTPVTITLPVREYDPSLGVTRERLVTINGTVITTLLEKHPDGSVISTVDVLPASA [r9_1058_JUSTAS] | 0.69 ± 0.039 | -0.177 ± 0.026 | 0.427 ± 0.049
SMIVTEEVSYDPSTNTRTITKTVYEKDENGNLVPVETEVVVEPVEEPPPYVPVIKVPPSNKTPEDRVKVLSA [r9_888_JUSTAS] | 1.02 ± 0.27 | -0.035 ± 0.23 | 0.781 ± 0.35
SMKDATSTSIGSRTYTYPNTDPSVSPEELKEKVIEEIKKEPELKAVEITVEVDPSTGTVTITINLTKLVKSA [r9_1001_JUSTAS] | 1.76 ± 0.054 | 1.14 ± 0.021 | 1.5 ± 0.077
SMKIEVSGGNVTVEMYMWRRKKERDPDDPGKERDQPEPMPQTHTIDPNDPEAAKKFLDKFPPGFRPEIHDSA [r9_476_TrROS] | 0.0896 ± 0.43 | 0.594 ± 0.19 | 0.446 ± 0.25
SMKIKIKVETNPNGEKKIEIEIELKEEDIEFDEGMTLEERKEKLRELAEELAKKLKEEGKEVKIVEIEVESA [r9_751_TrROS_Hall] | 2.27 ± 0.048 | 1.8 ± 0.067 | 2.1 ± 0.17
SMKIKIPVLIKVDPSETIEEVLEKVKEIAEEIAKFLESKGGPVEVKADVEPIPEIDYVIVTVEAYVPEEASA [r9_1161_TrMRF] | 1.8 ± 0.082 | 1.53 ± 0.075 | 1.54 ± 0.17
SMKIKIYVAPPGYVVVRITGPNGFYIPIPAKDPDEAKAKLEELINNLQERNGHKPDIDVVPFPPGQEIGDSA [r9_786_TrROS] | 2.22 ± 0.1 | 1.39 ± 0.044 | 1.93 ± 0.15
SMKIPGMSAKEKLRKAIEALLEEAEKKGIKEITIKIYNKKTKKPIKEIKFKSKEELLKKIEEGDEVEIEFSA [r9_718_TrROS_Hall] | 1.71 ± 0.061 | 2.1 ± 0.045 | 1.83 ± 0.13
